Measurements published in patent US10100317B2, “Compositions of matter that reduce pain, shock, and inflammation by blocking linoleic acid metabolites and uses thereof” (Board of Regents of the University of Texas System, priority 2012, dated 2018).
Entries after “also recorded” stand apart in the source; their conditions may differ.

Columns and labels:
TRPV1 in the spinal cord = conditions: completely reversible by a TRPV1 antagonist; cited from earlier work
[1] = test system: LA-evoked nofifensive behaviors; test: LA-evoked nocifensive behaviors after capsazepine pretreatment (FIG. 3B); format: in vivo; conditions: pretreatment before linoleic acid
[2] = test system: TRPV1 knock-out (KO) mice; test: LA-triggered nocifensive behaviors in TRPV1 knock-out versus wild type mice (FIG. 3C); format: in vivo; conditions: TRPV1 KO mice compared to wild type mice
normal rats = test: Spontaneous nocifensive behaviors after linoleic acid injection in normal rats (FIG. 3A); format: in vivo, rat
[3] = ELASA (ELISA-like) plate screening of aptamers against 13-HODE / biotinylated 13-HODE; format: binding; conditions: for Trial 2 Abs 405 nm: ELASA trial 2; for Trial 2 Abs 405 nm / Trial 1 Abs 405 nm / Trial 3 Abs 405 nm: 13-HODE / biotinylated 13-HODE aptamers, absorbance 10-15 minutes after final addition of ABTS substrate; for Trial 1 Abs 405 nm: ELASA trial 1; for Trial 3 Abs 405 nm: ELASA trial 3; for Affinity ranking in ELASA plate screening: biotinylated 13-HODE target, three trials, done in triplicate
Experimental: (§1) To evaluate, screen, and rank aptamers based on affinity against their cognate HODE isomers, two different approaches are used. The first involved the use of Corning Costar Universal Bind™ microplates (No. 2503) for ultraviolet (UV) immobilization of 200 ng/well of unlabeled HODES to the plate's surface (Bruno et al., 2008 and 2009) using 0.2 Joules/cm^2 in a UV crosslinker oven for 15 minutes. The second involved streptavidin (SAv)-coated microwell strips (Nunc, Inc. Catalogue #436020) in which 400 ng of the biotinylated-13-HODE are immobilized for 30 minutes at RT with gentle mixing in 200 μl of PBS per well.
(§2) Plates or wells are decanted and washed three times in 250 μl of 1×BB. Each of the different 5′-biotinylated aptamers raised against the target is dissolved in 1×BB at 1.00 nmole per 100 microliters and applied to their corresponding plate wells for 1 hour at RT with gentle mixing on an orbital shaker. The plate is decanted and washed three times in 250 μl of 1×BB for at least 5 minutes per wash with gentle mixing. One hundred μl of a 1:2,000 dilution of SAv-peroxidase from a 5 mg/ml stock solution in 1×BB is added per well for 30 minutes at RT with gentle mixing. The plate is decanted and washed three times with 250 μl of 1×BB per well as before.
(§3) One hundred μl of ABTS (2,2′-azino-bis(3-ethylbenzthiazoline-6-sulphonic acid) substrate with stabilized hydrogen peroxide (Kirkegaard Perry Laboratories, Inc., Gaithersburg, Md.) is added per well for 10 minute at RT. Various deletion control wells without biotinylated aptamers or SAv-peroxidase are set up and evaluated to establish background levels as well. Finally absorbance is quantified using a microplate reader with 405 nm optical filter.
(§4) These aptamers were: H9-3/19F and B13-9R for the 9-HODE and biotinylated 13-HODE targets respectively and they proceeded into animal testing.

[4] = test system: cultured capsaicin-sensitive neurons; test: Patch clamp electrophysiology of cultured capsaicin-sensitive neurons; format: cell-based
[5] = ELASA (ELISA-like) plate screening of aptamers against 9-HODE; format: binding; conditions: for Affinity ranking in ELASA plate screening: 9-HODE target, three trials, done in triplicate; for Trial 1 Abs 405 nm: ELASA trial 1; for Trial 3 Abs 405 nm: ELASA trial 3
Experimental: as §1, §2, §3, §4

[6] = SPR analysis (Biacore X100) with immobilized 13(S)-HODE-Biotin; format: binding; conditions: CM5 chip, 1×HBS-EP+ buffer, aptamer 20-80 μM, contact 90 s, dissociation 600 s; read-out: dissociation constant, KD
Experimental: SPR Analysis of H9-3/19F Aptamer and B13-9R Aptamer with 13(S)-HODE-Biotin
(§5) 13(S)-HODE-Biotin was immobilized on a CM5 sensor chip utilizing biotin-streptavidin chemistry. Various concentrations of H9-3/19F aptamer (SEQ ID. NO. 84) were flowed through the Biacore X100 with 1×HBS-EP+ running buffer at a flow rate of 30 μl/min and allowed a contact time with the surface-bound ligand of 90 seconds, followed by a dissociation time set at 600 seconds. The following concentrations of aptamer were used: 20 μM, 40 μM, 60 μM and 80 μM.
as §5, with “B13-9R” for “H9-3/19F”, “67)” for “84)”

[7] = test system: rat hindpaws inflamed with complete Freund's adjuvant (CFA); test: Pain responses in rat hindpaws inflamed with complete Freund's adjuvant (CFA); format: in vivo; conditions: local (hindpaw) injection, FIG. 2
[8] = 9-HODE aptamers, absorbance 10-15 minutes after final addition of ABTS substrate

For “9-hydroxyoctadecadienoic acid [Aptamer 9-HODE]”, the tactile allodynia (TRPV1 in the spinal cord) is listed as “results in tactile allodynia”.

For `COc1cc(CNC(=O)CCCC/C=C/C(C)C)ccc1O` [capsaicin], the tactile allodynia (TRPV1 in the spinal cord) is listed as “results in tactile allodynia”.

For `Oc1cc2c(cc1O)CN(C(=S)NCCc1ccc(Cl)cc1)CCC2` [capsasepine], the LA-evoked nocifensive behaviors [1] was “significantly reduced”.

For `CCCCC/C=C\C/C=C\CCCCCCCC(=O)O` [linoleic acid, cis, cis-9,12-octadecadienoic acid], the LA-triggered nocifensive behaviors [2] was “significantly reduced” and the spontaneous nocifensive behaviors (normal rats) was “does not produce a significant increase”.

B1: B13-1a/4/6/15/17/19/20R: DNA aptamer clone, biotinylated 13-HODE target (nucleic acid)
DNA: ATCCGTCACACCTGCTCTCGAGTATAAGGGGGAGTTGCATAACGCTAAACTTTGTGGTGTTGGCTCCCGTAT
modifications: DNA, backbone not given here
notes: DNA aptamer clone, biotinylated 13-HODE target
With B1 the “Trial 2 Abs 405 nm” value [3] was 1.595.

B2: 5′-ATACGGGAGCCAACACCACCGAATGTGCTGCAGGACTAATCTGGATGGCCATGCAGAGCAGGTGTGACGGAT-3′ (nucleic acid)
DNA: ATACGGGAGCCAACACCACCGAATGTGCTGCAGGACTAATCTGGATGGCCATGCAGAGCAGGTGTGACGGAT
modifications: DNA, backbone not given here
notes: DNA aptamer for the OLAM 9-HODE
With B2 the “block of capsaicin response (selectivity)” value ([4]; capsaicin itself / TRPV1 directly) was “does not block capsaicin itself”, the “activation of cultured capsaicin-sensitive neurons” value ([4]; pre-treatment with aptamer, 9-HODE response, preliminary data, FIG. 1) was “blocks activation” and the “Affinity ranking in ELASA plate screening” value (shortened to “Affinity ranking”) [5] was “highest affinity; also recorded: top two to three strongest absorbance signals”. The “Affinity ranking” value ([5]; listed as SEQ ID NO. 84) was “highest binding affinity”, the “Trial 1 Abs 405 nm” value [5, 8] was 2.081 and the “Trial 2 Abs 405 nm” value ([5]; ELASA trial 2, 9-HODE aptamers, absorbance 10-15 minutes after final addition of ABTS substrate) was 1.648. For the same molecule, the “Trial 3 Abs 405 nm” value [5, 8] was 1.640, the Kd [6] was 0.129 nM and the “pain responses to mechanical stimuli” value [7] was “significant reduction in pain responses”. The “pain responses to thermal stimuli” value [7] was “significant reduction in pain responses”.

B3: H9-3/19R: DNA aptamer clone, 9-HODE target (nucleic acid)
DNA: ATCCGTCACACCTGCTCTGCATGGCCATCCAGATTAGTCCTGCAGCACATTCGGTGGTGTTGGCTCCCGTAT
modifications: DNA, backbone not given here
notes: DNA aptamer clone, 9-HODE target
In the case of B3, the “Trial 1 Abs 405 nm” value [5, 8] is reported as 1.571.

B4: H13-12F: DNA aptamer clone, 13-HODE target (nucleic acid)
DNA: ATACGGGAGCCAACACCATGTTACATCAACTGCATGAAGACGAGGAATGTGATGAGAGCAGGTGTGACGGAT
modifications: DNA, backbone not given here
notes: DNA aptamer clone, 13-HODE target
With B4 the “Trial 1 Abs 405 nm” value [3] was 1.442.

B5: B13-8F: DNA aptamer clone, biotinylated 13-HODE target (nucleic acid)
DNA: ATACGGGAGCCAACACCAGCGAAGCCAAAACTGGTCGGGCCGACGGGATTCGTTAGAGCAGGTGTGACGGAT
modifications: DNA, backbone not given here
notes: as for B1
For B5, the “Trial 1 Abs 405 nm” value [3] was 1.490.

B6: B13-12R: DNA aptamer clone, biotinylated 13-HODE target (nucleic acid)
DNA: ATCCGTCACACCTGCTCTGCCATTGAATCTCATATGGTGCTCGAGTAGCTGGTGTGGTGTTGGCTCCCGTAT
modifications: DNA, backbone not given here
notes: as for B1
With B6 the “Trial 3 Abs 405 nm” value [3] was 1.310.

B7: B13-10bR: DNA aptamer clone, biotinylated 13-HODE target (nucleic acid)
DNA: ATCCGTCACACCTGCTCTGCGGACAGCGGTTGCGCATATATCGTGGCAGTGGGCTGGTGTTGGCTCCCGTAT
modifications: DNA, backbone not given here
notes: as for B1
With B7 the “Trial 2 Abs 405 nm” value [3] was 1.214.

B8: 5′-ATCCGTCACACCTGCTCTGGGGGGGGAAGCTCGTGGTATAAGGGGCGTTGAGGTGGTGTTGGCTCCCGTAT-3′ (nucleic acid)
DNA: ATCCGTCACACCTGCTCTGGGGGGGGAAGCTCGTGGTATAAGGGGCGTTGAGGTGGTGTTGGCTCCCGTAT
modifications: DNA, backbone not given here
notes: DNA aptamer for the OLAM 13-HODE
With B8 the “Trial 1 Abs 405 nm” value [3] was 1.549, the “Trial 2 Abs 405 nm” value [3] was 1.885 and the “Trial 3 Abs 405 nm” value [3] was 1.964. For the same molecule, the “Affinity ranking” value [3] was “highest affinity; also recorded: top two to three strongest absorbance signals”, the “Affinity ranking” value ([3]; listed as SEQ ID NO. 67) was “highest binding affinity” and the Kd [6] was 2.56 nM.

B9: H13-1/2-4/6-8/14-18/20F: DNA aptamer clone, 13-HODE target (nucleic acid)
DNA: ATACGGGAGCCAACACCACAAAGTTTAGCGTTATGCAACTCCCCCTTATACTCGAGAGCAGGTGTGACGGAT
modifications: DNA, backbone not given here
notes: as for B4
For B9, the “Trial 2 Abs 405 nm” value [3] was 1.199 and the “Trial 3 Abs 405 nm” value [3] was 1.387.

B10: H9-2/4-6/8a/9b/14/20F: DNA aptamer clone, 9-HODE target (nucleic acid)
DNA: B9 DNA
modifications: DNA, backbone not given here
notes: as for B3
In the case of B10, the “Trial 3 Abs 405 nm” value [5, 8] is reported as 1.249.
